# Source: paper PMC3384314
# T1: dHEXIM ILAA (Drosophila, UniProt Q7K4N7 1-349, K42I;H43L;R44A;R45A)
# T1 sequence: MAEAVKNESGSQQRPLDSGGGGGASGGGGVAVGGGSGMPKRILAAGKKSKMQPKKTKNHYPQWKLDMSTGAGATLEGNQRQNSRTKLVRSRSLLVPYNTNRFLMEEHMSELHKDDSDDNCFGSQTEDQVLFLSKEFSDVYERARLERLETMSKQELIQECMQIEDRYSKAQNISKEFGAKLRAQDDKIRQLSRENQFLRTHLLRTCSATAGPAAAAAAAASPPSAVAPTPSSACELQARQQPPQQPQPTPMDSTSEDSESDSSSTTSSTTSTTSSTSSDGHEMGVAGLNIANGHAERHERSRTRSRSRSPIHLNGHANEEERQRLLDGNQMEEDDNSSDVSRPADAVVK
# T2: dHEXIM WT (Drosophila, UniProt Q7K4N7 1-349)
# T2 sequence: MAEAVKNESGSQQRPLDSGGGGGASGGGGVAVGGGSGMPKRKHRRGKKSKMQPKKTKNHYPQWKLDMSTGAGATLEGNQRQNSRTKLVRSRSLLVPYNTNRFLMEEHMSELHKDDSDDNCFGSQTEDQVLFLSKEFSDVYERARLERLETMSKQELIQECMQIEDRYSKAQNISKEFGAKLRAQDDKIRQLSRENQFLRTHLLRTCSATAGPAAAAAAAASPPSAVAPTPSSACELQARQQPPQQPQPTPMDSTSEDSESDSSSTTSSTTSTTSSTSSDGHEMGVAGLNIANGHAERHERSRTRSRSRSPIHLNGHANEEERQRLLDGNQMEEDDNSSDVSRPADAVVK
# How the values were obtained:
# dHEXIM ILAA = target: T1, dHEXIM ILAA; assay: EMSA
# dHEXIM WT = target: T2, dHEXIM WT; assay: EMSA
binder,measurement,setting,value
dsRNA oligo (TTF2 25-mer) (dsRNA) RNA 1: CAAGCAAGAGGCAGAGAUCCCAGGU RNA 2: ACCUGGGAUCUCUGCCUCUUGCUUG,binding result,dHEXIM ILAA,no binding
same,binding result,dHEXIM WT,binds
